Changes are numbered by the printed parent chain.
How the values were obtained:
Assay type in all cases: biochemical
[1] = Directed evolution of UGT76G1, Rebaudioside D to Rebaudioside M, round 1 (Example 26); conditions: 100 μL fresh lysate, 0.5 mM Rebaudioside D, 30° C., pH 7.2
Summary of the method: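 Cleared cell lysate (Bugbuster) incubated with 0.5 mM Rebaudioside D, 3 mM MgCl2 and 2.5 mM UDP-glucose in 50 mM phosphate pH 7.2 at 30 °C. Samples at 2, 4, 7 and 24 h analysed by HPLC-CAD for conversion and initial rate.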

[2] = Directed evolution of UGT76G1, Rebaudioside D to Rebaudioside X, round 2 (Example 41); conditions: baseline clone Round1-Var94 defined as 100%, 100 μL lysate, 0.5 mM Rebaudioside D, 30° C., pH 7.2
Description: Lysis was performed by addition of Bugbuster® Master mix (Novagen®) to the thawed cells and the lysate was recovered by centrifugation. Activity tests were performed with 100 μL of fresh lysate that was added to a solution of Rebaudioside D (final concentration 0.5 mM), MgCl2 (final concentration 3 mM) and UDP-Glucose (final concentration 2.5 mM) in 50 mM phosphate buffer pH 7.2.
The reaction was allowed to run at 30° C. and samples were taken after 2, 4, 7 and 24 h. to determine conversion and initial rate by HPLC (CAD detection) using the analytical method that was described above for the transformation of Rebaudioside D to Rebaudioside X. In parallel the experiments were performed with baseline clone, Round1-Var94. The conversion after 22 h. and initial rate for this baseline clone was defined as 100% and the normalized conversions and initial rates for the round 2 clones are depicted in the following table: […]

[3] = Activity of UGT76G1_Sc for conversion of Rebaudioside D to Rebaudioside M (Example 35); conditions: 21 h., based on initial concentration of Rebaudioside D
Description: UGT76G1_Sc was prepared according to EXAMPLE 34. Activity tests were performed at 2 mL scale with 200 μL of lysate for the transformation of Rebaudioside D using 0.5 mM of substrate, 2.5 mM of UDP-Glucose and 3 mM MgCl2 in 50 mM Sodium Phosphate buffer at pH 7.2. Samples were taken and analyzed by HPLC. The corresponding chromatogram is depicted in FIG. 64.

[4] = Activity for Stevioside to Rebaudioside E conversion with UGTSL, UGTSL2, UGTLB (Examples 28, 32); conditions: UGTLB, 22 h., 600 μL lysate, based on initial concentration of Stevioside
Description: Activity tests were performed at 3 mL scale with 600 μL of lysate for the transformation of Stevioside using 0.5 mM of substrate, 2.5 mM of UDP-Glucose and 3 mM MgCl2 in 50 mM Sodium Phosphate buffer at pH 7.2. Samples were taken and analyzed by HPLC. HPLC Analysis. The HPLC assay was performed as described in EXAMPLE 20.
Activity tests were performed at 3 mL scale with 600 μL of lysate for the transformation of Stevioside using 0.5 mM of substrate, 2.5 mM of UDP-Glucose and 3 mM MgCl2 in 50 mM Sodium Phosphate buffer at pH 7.2. Samples were taken and analyzed by HPLC. The corresponding chromatograms are depicted in FIG. 63a.

[5] = Activity for Rubusoside to Rebaudioside E conversion with UGTSL, UGTSL2, UGTLB (Examples 29, 32); conditions: UGTLB, 5 h., 600 μL lysate, based on initial concentration of Rubusoside
Description: Activity tests were performed at 3 mL scale with 600 μL of lysate for the transformation of Rubusoside using 0.5 mM of substrate, 2.5 mM of UDP-Glucose and 3 mM MgCl2 in 50 mM Sodium Phosphate buffer at pH 7.2. Samples were taken and analyzed by HPLC. The HPLC assay was performed as described in EXAMPLE 20.
Activity tests were performed at 3 mL scale with 600 μL of lysate for the transformation of Rubusoside using 0.5 mM of substrate, 2.5 mM of UDP-Glucose and 3 mM MgCl2 in 50 mM Sodium Phosphate buffer at pH 7.2. Samples were taken and analyzed by HPLC. The corresponding chromatograms are depicted in FIG. 63b.

[6] = Stevioside conversion products with UGTSL, UGTSL2, UGTLB by LCMS (Example 33); conditions: reaction time UGTSL2 2 hrs, UGTLB 2 hrs, UGTSL 22 hrs
Description: (§1) Conversion of stevioside with UGTSL and UGTSL2 was conducted in similar manner to Example 28, and the conversion of rubusoside with UGTSL and UGTSL2 was conducted similarly to Example 29. Conversions of rubusoside and stevioside with UGTLB was conducted similarly to Example 32.
(§2) The reaction mixtures were analyzed by LCMS to determine all reaction products.

[7] = Rubusoside conversion products with UGTSL, UGTSL2, UGTLB by LCMS (Example 33); conditions: reaction time UGTSL2 2 hrs, UGTLB 5 hrs, UGTSL 45 hrs
Description: as §1, §2

[8] = Activity for Rebaudioside A to Rebaudioside D conversion with UGTSL2, UGTLB (Examples 30, 32); conditions: UGTLB, 22 h., 600 μL lysate, based on initial concentration of Rebaudioside A
Description: Activity tests were performed at 3 mL scale with 60 μL of lysate for the transformation of Rebaudioside A using 0.5 mM of substrate, 2.5 mM of UDP-Glucose and 3 mM MgCl2 in 50 mM Sodium Phosphate buffer at pH 7.2. Samples were taken and analyzed by HPLC. The HPLC assay was performed as described in EXAMPLE 20.
Activity tests were performed at 3 mL scale with 600 μL of lysate for the transformation of Rebaudioside A using 0.5 mM of substrate, 2.5 mM of UDP-Glucose and 3 mM MgCl2 in 50 mM Sodium Phosphate buffer at pH 7.2. Samples were taken and analyzed by HPLC. The corresponding chromatogram after 23 h. of reaction is depicted in FIG. 63c.

[9] = Transformation of Rubusoside to Stevioside with in-vivo preparations of UGT91D2 (Example 19); conditions: per mL of lysate; 1 U transforms 1 μmol of substrate in 1 hour at 30° C. and pH 7.2
Description: Activity tests were performed at 5 mL scale with 1000 μL of lysate for the transformation of Rubusoside to Stevioside using 0.5 mM of substrate, 2.5 mM of UDP-Glucose and 3 mM MgCl2 in 50 mM Sodium Phosphate buffer at pH 7.2. Samples were taken and analyzed by HPLC.

B1: UGT76G1var94: UGT76G1 variant, mutations Q266E_P272A_R334K_G348P_L379G (protein, UniProt Q6VAB4 1-458, looked up, variant Q266E P272A R334K G348P L379G)
UDP-glycosyltransferase 76G1: MENKTETTVRRRRRIILFPVPFQGHINPILQLANVLYSKGFSITIFHTNFNKPKTSNYPHFTFRFILDNDPQDERISNLPTHGPLAGMRIPIINEHGADELRRELELLMLASEEDEEVSCLITDALWYFAQSVADSLNLRRLVLMTSSLFNFHAHVSLPQFDELGYLDPDDKTRLEEQASGFPMLKVKDIKSAYSNWQILKEILGKMIKQTKASSGVIWNSFKELEESELETVIREIPAPSFLIPLPKHLTASSSSLLDHDRTVFEWLDQQAPSSVLYVSFGSTSEVDEKDFLEIARGLVDSKQSFLWVVRPGFVKGSTWVEPLPDGFLGERGKIVKWVPQQEVLAHPAIGAFWTHSGWNSTLESVCEGVPMIFSDFGGDQPLNARYMSDVLKVGVYLENGWERGEIANAIRRVMVDEEGEYIRQNARVLKQKADVSLMKGGSSYESLESLVSYISSL
conversion Reb D to Reb M after 24 h [1]: 72.0% | initial rate [1]: 7.9E+07 Reb M area/min | Normalized conversion Reb D to Reb X after 22 h. [2]: 100% | Normalized initial rate (0-4 h) [2]: 100%

B2: UGT76G1_Sc: UGT76G1 produced in S. cerevisiae, lysate (protein, UniProt Q6VAB4 1-458, looked up)
UDP-glycosyltransferase 76G1: B1 UDP-glycosyltransferase 76G1 with E266Q, A272P, K334R, P348G, G379L
modifications: S. cerevisiae lysate
Rebaudioside D conv. (reaction time) ([3]; 200 μL lysate, 0.5 mM substrate, 2.5 mM UDP-Glucose, pH 7.2): 85% (21 h.) | Rebaudioside M selectivity [3]: 100%

B3: UGTLB: UDP-glucosyltransferase, Lycium barbarum, SEQ ID NO:10 (protein, listed as Escherichia coli)
chain: MGTEVTVHKNTLRVLMFPWLAYGHISPFLNVAKKLVDRGFLIYLCSTAINLKSTIKKIPEKYSDSIQLIELHLPELPELPPHYHTTNGLPPHLNHTLQKALKMSKPNFSKILQNLKPDLVIYDLLQQWAEGVANEQNIPAVKLLTSGAAVLSYFFNLVKKPGVEFPFPAIYLRKNELEKMSELLAQSAKDKEPDGVDPFADGNMQVMLMSTSRIIEAKYIDYFSGLSNWKVVPVGPPVQDPIADDADEMELIDWLGKKDENSTVFVSFGSEYFLSKEDREEIAFGLELSNVNFIWVARFPKGEEQNLEDALPKGFLERIGDRGRVLDKFAPQPRILNHPSTGGFISHCGWNSVMESVDFGVPIIAMPIHLDQPMNARLIVELGVAVEIVRDDYGKIHREEIAEILKDVIAGKSGENLKAKMRDISKNLKSIRDEEMDTAAEELIQLCKNSPKLK
Rebaudioside E formation ([4]; 0.5 mM Stevioside): 3% | Stevioside conv. (reaction time) ([4]; 0.5 mM substrate): 89% (22 h.) | Rebaudioside E formation ([5]; 0.5 mM Rubusoside): 4% | Rubusoside conv. (reaction time) ([5]; 0.5 mM substrate): 65% (5 h.) | LC-MS, peak area ratio (%): Reb E [6]: 3.12% | LC-MS, peak area ratio (%): Stev [6]: 43.11% | LC-MS, peak area ratio (%): Unknown peak #2 (MW966) RT = 26.50 min [6]: 53.78% | LC-MS, peak area ratio (%): REb E [7]: 9.21% | LC-MS, peak area ratio (%): Reb D [7]: 1.29% | LC-MS, peak area ratio (%): Rub [7]: 13.49% | LC-MS, peak area ratio (%): Unknown peak #1 (MW804) RT 30.70 min [7]: 4.07% | LC-MS, peak area ratio (%): Unknown peak #2 (MW804) RT 49.50 min [7]: 66.67% | LC-MS, peak area ratio (%): Unknown peak #3 (MW804) RT 50.40 min [7]: 5.27% | Rebaudioside D formation ([8]; 0.5 mM Rebaudioside A): 10% | Rebaudioside A conv. (reaction time) ([8]; 0.5 mM substrate): 72% (22 h.)

B4: Example 15: UGT91D2 lysate using pMAL plasmid and BL21 expression strain (protein, UniProt B3VI56 1-473, looked up)
UDP-glycosyltransferase 91D2: MATSDSIVDDRKQLHVATFPWLAFGHILPYLQLSKLIAEKGHKVSFLSTTRNIQRLSSHISPLINVVQLTLPRVQELPEDAEATTDVHPEDIPYLKKASDGLQPEVTRFLEQHSPDWIIYDYTHYWLPSIAASLGISRAHFSVTTPWAIAYMGPSADAMINGSDGRTTVEDLTTPPKWFPFPTKVCWRKHDLARLVPYKAPGISDGYRMGLVLKGSDCLLSKCYHEFGTQWLPLLETLHQVPVVPVGLLPPEVPGDEKDETWVSIKKWLDGKQKGSVVYVALGSEVLVSQTEVVELALGLELSGLPFVWAYRKPKGPAKSDSVELPDGFVERTRDRGLVWTSWAPQLRILSHESVCGFLTHCGSGSIVEGLMFGHPLIMLPIFGDQPLNARLLEDKQVGIEIPRNEEDGCLTKESVARSLRSVVVEKEGEIYKANARELSKIYNDTKVEKEYVSQFVDYLEKNTRAVAIDHES
modifications: MBP fusion from pMAL, E. coli lysate
notes: UGT91D2 lysate using pMAL plasmid and BL21 expression strain
Transformation activity Rubusoside to Stevioside [9]: 9 mU mL^−1

B5: Example 17: UGT91D2 lysate using pET30a+ plasmid and Tuner (DE3) expression strain (protein, UniProt B3VI56 1-473, looked up)
UDP-glycosyltransferase 91D2: B4 UDP-glycosyltransferase 91D2
modifications: E. coli lysate
notes: UGT91D2 lysate using pET30a+ plasmid and Tuner (DE3) expression strain
Transformation activity Rubusoside to Stevioside [9]: 28 mU mL^−1

B6: Example 18: UGT91D2 lysate using pET30a+ plasmid and ArcticExpress expression strain (protein, UniProt B3VI56 1-473, looked up)
UDP-glycosyltransferase 91D2: B4 UDP-glycosyltransferase 91D2
modifications: E. coli lysate
notes: UGT91D2 lysate using pET30a+ plasmid and ArcticExpress expression strain
Transformation activity Rubusoside to Stevioside [9]: 21 mU mL^−1

Reference: patent publication US11653679B2, “High-purity steviol glycosides” (PureCircle Sdn Bhd, priority 2014, dated 2023)
